Data: publication PMC8298264, “Function of cofactor Akirin2 in the regulation of gene expression in model human neutrophil-like HL60 cells” (Bioscience Reports, 2021)

B1: sp¦O75368¦SH3L1_HUMAN (protein, UniProt O75368 1-114, looked up)
Adapter SH3BGRL: MVIRVYIASSSGSTAIKKKQQDVLGFLEANKIGFEEKDIAANEENRKWMRENVPENSRPATGYPLPPQIFNESQYRGDYDAFFEARENNAVYAFLGLTAPPGSKEAEVQAKQQA
B2: sp¦Q9P013¦CWC15_HUMAN (protein, UniProt Q9P013 2-229, looked up)
Spliceosome-associated …: TTAARPTFEPARGGRGKGEGDLSQLSKQYSSRDLPSHTKIKYRQTTQDAPEEVRNRDFRRELEERERAAAREKNRDRPTREHTTSSSVSKKPRLDQIPAANLDADDPLTDEEDEDFEEESDDDDTAALLAELEKIKKERAEEQARKEQEQKAEEERIRMENILSGNPLLNLTGPSQPQANFKVKRRWDDDVVFKNCAKGVDDQKKDKRFVNDTLRSEFHKKFMEKYIK
B3: Serpin B10 (protein, UniProt P48595 1-397, looked up)
Serpin B10: MDSLATSINQFALELSKKLAESAQGKNIFFSSWSISTSLTIVYLGAKGTTAAQMAQVLQFNRDQGVKCDPESEKKRKMEFNLSNSEEIHSDFQTLISEILKPNDDYLLKTANAIYGEKTYAFHNKYLEDMKTYFGAEPQPVNFVEASDQIRKDINSWVERQTEGKIQNLLPDDSVDSTTRMILVNALYFKGIWEHQFLVQNTTEKPFRINETTSKPVQMMFMKKKLHIFHIEKPKAVGLQLYYKSRDLSLLILLPEDINGLEQLEKAITYEKLNEWTSADMMELYEVQLHLPKFKLEDSYDLKSTLSSMGMSDAFSQSKADFSGMSSARNLFLSNVFHKAFVEINEQGTEAAAGSGSEIDIRIRVPSIEFNANHPFLFFIRHNKTNTILFYGRLCSP
B4: sp¦O43633¦CHM2A_HUMAN (protein, UniProt O43633 1-222, looked up)
Charged multivesicular body …: MDLLFGRRKTPEELLRQNQRALNRAMRELDRERQKLETQEKKIIADIKKMAKQGQMDAVRIMAKDLVRTRRYVRKFVLMRANIQAVSLKIQTLKSNNSMAQAMKGVTKAMGTMNRQLKLPQIQKIMMEFERQAEIMDMKEEMMNDAIDDAMGDEEDEEESDAVVSQVLDELGLSLTDELSNLPSTGGSLSVAAGGKKAEAAASALADADADLEERLKNLRRD
B5: Hematopoietic lineage cell-specific protein (protein, UniProt P14317 1-486, looked up)
Hematopoietic lineage …: MWKSVVGHDVSVSVETQGDDWDTDPDFVNDISEKEQRWGAKTIEGSGRTEHINIHQLRNKVSEEHDVLRKKEMESGPKASHGYGGRFGVERDRMDKSAVGHEYVAEVEKHSSQTDAAKGFGGKYGVERDRADKSAVGFDYKGEVEKHTSQKDYSRGFGGRYGVEKDKWDKAALGYDYKGETEKHESQRDYAKGFGGQYGIQKDRVDKSAVGFNEMEAPTTAYKKTTPIEAASSGTRGLKAKFESMAEEKRKREEEEKAQQVARRQQERKAVTKRSPEAPQPVIAMEEPAVPAPLPKKISSEAWPPVGTPPSSESEPVRTSREHPVPLLPIRQTLPEDNEEPPALPPRTLEGLQVEEEPVYEAEPEPEPEPEPEPENDYEDVEEMDRHEQEDEPEGDYEEVLEPEDSSFSSALAGSSGCPAGAGAGAVALGISAVAVYDYQGEGSDELSFDPDDVITDIEMVDEGWWRGRCHGHFGLFPANYVKLLE
B6: Heat shock protein 105 kDa (protein, UniProt Q92598 2-858, looked up)
Heat shock protein 105 kDa: SVVGLDVGSQSCYIAVARAGGIETIANEFSDRCTPSVISFGSKNRTIGVAAKNQQITHANNTVSNFKRFHGRAFNDPFIQKEKENLSYDLVPLKNGGVGIKVMYMGEEHLFSVEQITAMLLTKLKETAENSLKKPVTDCVISVPSFFTDAERRSVLDAAQIVGLNCLRLMNDMTAVALNYGIYKQDLPSLDEKPRIVVFVDMGHSAFQVSACAFNKGKLKVLGTAFDPFLGGKNFDEKLVEHFCAEFKTKYKLDAKSKIRALLRLYQECEKLKKLMSSNSTDLPLNIECFMNDKDVSGKMNRSQFEELCAELLQKIEVPLYSLLEQTHLKVEDVSAVEIVGGATRIPAVKERIAKFFGKDISTTLNADEAVARGCALQCAILSPAFKVREFSVTDAVPFPISLIWNHDSEDTEGVHEVFSRNHAAPFSKVLTFLRRGPFELEAFYSDPQGVPYPEAKIGRFVVQNVSAQKDGEKSRVKVKVRVNTHGIFTISTASMVEKVPTEENEMSSEADMECLNQRPPENPDTDKNVQQDNSEAGTQPQVQTDAQQTSQSPPSPELTSEENKIPDADKANEKKVDQPPEAKKPKIKVVNVELPIEANLVWQLGKDLLNMYIETEGKMIMQDKLEKERNDAKNAVEEYVYEFRDKLCGPYEKFICEQDHQNFLRLLTETEDWLYEEGEDQAKQAYVDKLEELMKIGTPVKVRFQEAEERPKMFEELGQRLQHYAKIAADFRNKDEKYNHIDESEMKKVEKSVNEVMEWMNNVMNAQAKKSLDQDPVVRAQEIKTKIKELNNTCEPVVTQPKPKIESPKLERTPNGPNIDKKEEDLEDKNNFGAEPPHQNGECYPNEKNSVNMDLD
B7: Annexin A5 (protein, UniProt P08758 2-320, looked up)
Annexin A5: AQVLRGTVTDFPGFDERADAETLRKAMKGLGTDEESILTLLTSRSNAQRQEISAAFKTLFGRDLLDDLKSELTGKFEKLIVALMKPSRLYDAYELKHALKGAGTNEKVLTEIIASRTPEELRAIKQVYEEEYGSSLEDDVVGDTSGYYQRMLVVLLQANRDPDAGIDEAQVEQDAQALFQAGELKWGTDEEKFITIFGTRSVSHLRKVFDKYMTISGFQIEETIDRETSGNLEQLLLAVVKSIRSIPAYLAETLYYAMKGAGTDDHTLIRVMVSRSEIDLFNIRKEFRKNFATSLYSMIKGDTSGDYKKALLLLCGEDD
B8: sp¦P30740¦ILEU_HUMAN (protein, UniProt P30740 1-379, looked up)
Leukocyte elastase inhibitor: MEQLSSANTRFALDLFLALSENNPAGNIFISPFSISSAMAMVFLGTRGNTAAQLSKTFHFNTVEEVHSRFQSLNADINKRGASYILKLANRLYGEKTYNFLPEFLVSTQKTYGADLASVDFQHASEDARKTINQWVKGQTEGKIPELLASGMVDNMTKLVLVNAIYFKGNWKDKFMKEATTNAPFRLNKKDRKTVKMMYQKKKFAYGYIEDLKCRVLELPYQGEELSMVILLPDDIEDESTGLKKIEEQLTLEKLHEWTKPENLDFIEVNVSLPRFKLEESYTLNSDLARLGVQDLFNSSKADLSGMSGARDIFISKIVHKSFVEVNEEGTEAAAATAGIATFCMLMPEENFTADHPFLFFIRHNSSGSILFLGRFSSP
B9: Copper transport protein ATOX1 (protein, UniProt O00244 1-68, looked up)
Copper transport protein ATOX1: MPKHEFSVDMTCGGCAEAVSRVLNKLGGVKYDIDLPNKKVCIESEHSMDTLLATLKKTGKTVSYLGLE
B10: Resistin (protein, UniProt Q9HD89 19-108, looked up)
Resistin: KTLCSMEEAINERIQEVAGSLIFRAISSIGLECQSVTSRGDLATCPRGFAVTGCTCGSACGSWDVRAETTCHCQCAGMDWTGARCCRVQP
B11: Bone marrow proteoglycan (protein, UniProt P13727 17-222, looked up)
Bone marrow proteoglycan: LHLRSETSTFETPLGAKTLPEDEETPEQEMEETPCRELEEEEEWGSGSEDASKKDGAVESISVPDMVDKNLTCPEEEDTVKVVGIPGCQTCRYLLVRSLQTFSQAWFTCRRCYRGNLVSIHNFNINYRIQCSVSALNQGQVWIGGRITGSGRCRRFQWVDGSRWNFAYWAAHQPWSRGGHCVALCTRGGHWRRAHCLRRLPFICSY

System: human HL60 cells
Assay: SWATH-MS proteomics, differential protein representation, akirin2 KO vs WT HL60 cells
Format: cell-based
Conditions: SWATH-MS, akirin2 KO vs WT HL60 cells; over-represented in KO
Procedure, shortened: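 Read-out is label-free SWATH-MS protein area, globally normalized to total detected-protein area, with identifications held at 1% FDR against a library from information-dependent acquisition.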

Molecule | Fold Change | Log (Fold Change)
B1 | 1.672 | 0.2233
B2 | 1.692 | 0.2285
B3 | 1.749 | 0.2428
B4 | 1.663 | 0.2209
B5 | 1.764 | 0.2466
B6 | 1.783 | 0.2511
B7 | 1.702 | 0.231
B8 | 1.651 | 0.2178
B9 | 1.845 | 0.266
B10 | 1.774 | 0.2489
B11 | 6.406 | 0.8066
